Assay [1] addresses T1, EphA2-Fc (extracellular domain of human EphA2 linked to human IgG1 constant region) (human, UniProt P29317 24-537).
T1 construct: extracellular domain; Used as immunogen, ELISA antigen and BIACORE ligand; not shown: human IgG1 constant region
As to the kind of experiment: competitive ELISA on EphA2-Fc; competitor: labeled EA2; x axis is the ratio of unlabeled to labeled antibody. From the text: Supernatants from bulk culture hybridomas were screened for immunoreactivity against EphA2 (Table 6, column 4) using standard molecular biological techniques (e.g., ELISA immunoassay). Supernatants were further screened for the ability to inhibit an EphA2 monoclonal antibody (EA2; ATCC deposit no. PTA-4380; see co-pending U.S. patent application Ser. No. 10/436,783, entitled “EphA2 Agonistic Monoclonal Antibodies and Methods of Use Thereof” filed May 12, 2003) from binding to EphA2. […] Both antibodies could decrease the amount of labeled EA2 binding to EphA2-Fc with increasing concentrations of unlabeled antibody added. Additionally, many of the other antibodies could inhibit EA2 binding to EphA2 as well (Table 6, column 3).

Assay [2] deals with T1, EphA2-Fc (extracellular domain of human …). Put plainly: BIACORE, EphA2-Fc immobilized on a CM5 chip, double-referenced; undiluted hybridoma supernatant. As to the method:
EphA2-Fc was immobilize to a surface on a CM5 sensorchip using a standard amine (70 μl of a 1:1 mix of NHS/EDC) coupling chemistry. Briefly, a 400 nM solution of EphA2-Fc in 10 mM NaOAc, pH4, was then injected over the activated surface to a density of 1000-1100 RU's. Unused reactive esters were subsequently “capped” with a 70 μinjection of 1M Et-NH2. Similarly, an activated and “capped” control surface was prepared on the same sensor chip without protein to serve as a reference surface.
A 250 μl injection of each of the EphA2 hybridoma supernatants was made over both the EphA2-Fc and control surfaces, and the binding responses were recorded. These supernatants were used undiluted. Following each injection, at least 10 min. of dissociation phase data was collected. Purified EphA2 monoclonal antibody EA2 was prepared to serve as a positive control (at 1 μg, 5 μg and 25 μg per 250 μl of growth medium). […] Control injections of growth medium across these surfaces were also made. Following each binding cycle, the EphA2-Fc surface was regenerated with a single 1 min. pulse (injection) of 1M NaCl-50 mM NaOH.
A general note: In SPR one partner is held on a chip, and binding of the other changes the refractive index at the surface.

The target of assay [3] is T2, EphA2 on cells (MDA-MB-231, MCF-10A, MCF-7 transfected with human EphA2) (human, UniProt P29317 24-976).
T2 construct: whole, on cells; MDA-MB-231 and MCF-10A carry endogenous EphA2 and no species is stated for them
T2 sequence (P29317 24-976): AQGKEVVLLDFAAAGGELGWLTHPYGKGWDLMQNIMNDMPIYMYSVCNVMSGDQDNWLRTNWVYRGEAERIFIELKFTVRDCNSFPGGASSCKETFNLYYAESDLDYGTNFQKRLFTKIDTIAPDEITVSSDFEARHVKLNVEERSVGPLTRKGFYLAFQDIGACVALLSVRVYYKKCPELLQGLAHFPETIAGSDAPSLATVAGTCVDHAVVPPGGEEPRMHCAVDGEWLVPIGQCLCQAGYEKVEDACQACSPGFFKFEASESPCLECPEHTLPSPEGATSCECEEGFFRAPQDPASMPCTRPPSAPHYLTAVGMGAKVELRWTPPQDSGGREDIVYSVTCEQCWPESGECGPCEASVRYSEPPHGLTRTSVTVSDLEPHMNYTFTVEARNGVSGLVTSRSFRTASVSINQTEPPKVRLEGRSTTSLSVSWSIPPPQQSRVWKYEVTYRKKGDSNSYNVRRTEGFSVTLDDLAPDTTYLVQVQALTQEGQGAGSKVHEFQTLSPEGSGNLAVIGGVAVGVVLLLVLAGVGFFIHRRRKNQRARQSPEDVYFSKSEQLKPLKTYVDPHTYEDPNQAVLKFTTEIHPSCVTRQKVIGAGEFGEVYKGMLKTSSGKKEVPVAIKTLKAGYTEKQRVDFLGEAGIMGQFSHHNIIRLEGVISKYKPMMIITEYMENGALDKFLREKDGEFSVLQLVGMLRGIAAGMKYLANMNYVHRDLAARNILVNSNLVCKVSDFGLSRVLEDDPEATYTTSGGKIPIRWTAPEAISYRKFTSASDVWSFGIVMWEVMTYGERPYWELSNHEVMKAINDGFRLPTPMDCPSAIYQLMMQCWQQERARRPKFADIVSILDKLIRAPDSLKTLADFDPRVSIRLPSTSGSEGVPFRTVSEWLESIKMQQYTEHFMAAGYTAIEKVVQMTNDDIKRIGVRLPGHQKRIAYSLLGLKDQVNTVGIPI
Put plainly: immunofluorescence, 10 µg/ml at 4 C, MDA-MB-231 and MCF-10A cells. The procedure:
The epitopes of EphA2 antibodies were characterized. […] EA2 preferentially binds EphA2 on transformed cells (FIG. 16D). […] Treatment of non-transformed MCF-10A cells with 4 mM EGTA for 20 min. dissociated the cells. EA2 bound EphA2 on the EGTA dissociated cells but not the untreated cells (FIGS. 17A-17B).

T1 sequence (P29317 24-537): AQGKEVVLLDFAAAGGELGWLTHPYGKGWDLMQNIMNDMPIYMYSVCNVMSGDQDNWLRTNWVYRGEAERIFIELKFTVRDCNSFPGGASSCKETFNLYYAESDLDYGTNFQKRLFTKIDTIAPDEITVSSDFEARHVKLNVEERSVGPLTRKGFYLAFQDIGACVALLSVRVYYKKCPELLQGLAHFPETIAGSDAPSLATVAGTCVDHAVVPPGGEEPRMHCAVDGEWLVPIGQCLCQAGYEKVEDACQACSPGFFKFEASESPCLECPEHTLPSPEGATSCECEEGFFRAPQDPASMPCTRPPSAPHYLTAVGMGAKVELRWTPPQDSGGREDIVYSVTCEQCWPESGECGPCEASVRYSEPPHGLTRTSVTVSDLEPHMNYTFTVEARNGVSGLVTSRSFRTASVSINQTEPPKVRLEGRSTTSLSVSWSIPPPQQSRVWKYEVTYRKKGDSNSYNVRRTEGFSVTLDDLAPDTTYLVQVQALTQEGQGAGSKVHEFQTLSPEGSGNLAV

B1: Eph099B-208.261 (ATCC PTA-4573) (antibody, V domains shown)
VH: QVQLQQPGAELVKPGASVKLSCKASGYTFTSYWMHWVKQRPGQGLEWIGMIHPNSGSTNYNEKFKSKATLTVDKSSSTAYMRLSSLTSEDSAVYYCARGGNMVGGGYWGQGTTLTVSS
VL: QIVLTQSPALMSASPGEKVTMTCSASSSVSYMYWYQQKPRSSPKPWIYLTTNLASGVPARFSGSGSGTSYSLTISSMEAEDAATYYCQQWSSNPFTFGSGTKLEIR
notes: Mouse hybridoma antibody (SJL mice)
Turning to B1, the binding result in assay [1] is listed as “binds”.

B2: Eph099B-233.152 (ATCC PTA-5194) (antibody, V domains shown)
VH: EVKLVESGGGLVQPGGSLSLSCAASGFTFTDYSMNWVRQPPGKALEWLGFIRNKANDYTTEYSASVKGRFTISRDNSQSILYLQMNALRAEDSATYYCVRYPRYHAMDSWGQGTSVTVSS
VL: DIVLTQSPATLSVTPGDSVNLSCRASQSISNNLHWYQQKSHESPRLLIKYVFQSISGIPSRFSGSGSGTDFTLSINSVETEDFGMYFCQQSNSWPLTFGAGTKLELK
notes: Mouse hybridoma antibody (SJL mice); detected with anti-mouse IgG
Regarding B2, the binding result in assay [2] and in assay [3] was “binds” throughout.

Values taken from US20070166314A1 (AstraZeneca / MedImmune, published 2007).
